Laboratory results taken from patent US20120039878A1.

Legend:
[1] = biological target: the 3 mAbs (2A4, 8G9 and 7D8) as a group; test: Competition ELISA; told for the three mAbs together
[2] = biological target: murine monoclonal antibody 2A4 (ATCC Accession Number PTA-9662); test: Competition ELISA; human AA amyloid in solution competing with adsorbed mouse AA (AEF) for mAb 2A4
[3] = biological target: murine monoclonal antibody 7D8 (ATCC Accession Number PTA-9468); test: Competition ELISA; human AA amyloid in solution competing with adsorbed mouse AA (AEF) for mAb 7D8
[4] = biological target: murine monoclonal antibody 8G9; test: Competition ELISA; human AA amyloid in solution competing with adsorbed mouse AA (AEF) for mAb 8G9
murine monoclonal antibody 8G9, sequence (VL, as listed by the source, chain 1 of 2): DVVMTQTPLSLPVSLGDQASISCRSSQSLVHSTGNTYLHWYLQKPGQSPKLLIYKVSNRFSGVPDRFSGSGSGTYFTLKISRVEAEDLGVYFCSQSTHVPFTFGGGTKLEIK
murine monoclonal antibody 8G9, sequence (VH, as listed by the source, chain 2 of 2): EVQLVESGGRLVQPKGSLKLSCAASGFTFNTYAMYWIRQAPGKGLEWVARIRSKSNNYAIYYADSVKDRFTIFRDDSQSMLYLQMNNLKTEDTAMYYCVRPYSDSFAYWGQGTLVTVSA

murine monoclonal antibody 7D8 (ATCC Accession Number PTA-9468), sequence (VL, as listed by the source, chain 1 of 2): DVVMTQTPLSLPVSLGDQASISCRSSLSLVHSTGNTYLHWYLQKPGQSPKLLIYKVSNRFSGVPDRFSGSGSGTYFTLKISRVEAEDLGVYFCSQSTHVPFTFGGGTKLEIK
murine monoclonal antibody 7D8 (ATCC Accession Number PTA-9468), sequence (VH, as listed by the source, chain 2 of 2): as the sequence (VH, as listed by the source, chain 2 of 2) above
murine monoclonal antibody 2A4 (ATCC Accession Number PTA-9662), sequence (VH, as listed by the source, chain 2 of 2): as above

fold of IC50 against murine AEF in solution [1]: 6 to 44 fold
IC50 [2]: > 212 µg/mL
IC50 [3]: > 881 µg/mL
IC50 [4]: > 120 µg/mL
B1: human AA amyloid (human renal AA amyloid extract; AA deposits in human tissue) (protein, UniProt P0DJI8 19-94, looked up)
Amyloid protein A: RSFFSFLGEAFDGARDMWRAYSDMREANYIGSDKYFHARGNYDAAKRGPGGAWAAEVITDARENIQRFFGHGAEDS
modifications: Amyloid protein A amyloid fibrils
